Patent publication US20100137190A1, “LIQUID COMPOSITION FOR EXTERNAL APPLICATION AND PREPARATION FOR EXTERNAL APPLICATION FOR TREATMENT OF SKIN ULCER” (priority 2006, published 2010)
Entries after “also recorded” stand apart in the source; their conditions may differ.

Test system: ulcer model of delayed skin wound healing (60 sec ethanol exposure model)
Experiment: Healing effect of GM-CSF external agent on intractable skin ulcer
Type: in vivo
Protocol: By using a C57BL/6 mouse, an ulcer model of delayed skin wound healing as an intractable skin ulcer model was produced. Specifically, full thickness dorsal skin tissue with a size of 2×1.5 cm of a C57BL/6 mouse was excised, whereby the fascia was exposed with almost no bleeding. Then, the wound area was completely covered with cotton which had been sufficiently soaked in 70% ethanol, whereby ethanol exposure for 30 sec, 60 sec, 300 sec and 600 sec was carried out. After that, the wound area was air-dried, and the area of the wound area was measured (day 0). 7 days after completion of the experiment, the area of the wound area was measured, which was compared with the area of the wound area on day 0, and a change in the area of the wound area was examined. As a result, the shrinkage of the wound area was reduced as the time of ethanol exposure was increased, and the shrinkage hardly occurred by the 300 sec exposure. Incidentally, the mouse subjected to 600 sec ethanol exposure died at 3 days after the experiment due to deterioration of systemic symptoms. In the case where the time of ethanol exposure was short such as 30 sec exposure or 60 sec exposure, the healing was delayed because the tissue around the wound area directly received degenerative damage due to ethanol, however, granulation tissue was formed in the wound area in one week after the ethanol exposure, and the wound area was covered with epidermal tissue in about 3 weeks and the healing was completed. The 60 sec exposure was to be a factor of delaying the shrinkage of the wound area, but there was no systemic symptom and its effect was sufficient, therefore, this mouse was adopted as an ulcer model of delayed skin wound healing.
As GM-CSF, a mouse-derived recombinant (R&D System) was used. A solution obtained by dissolving this GM-CSF in an atelocollagen solution at a concentration of 20 μg/100 μL was applied to an affected area of the above-mentioned ulcer model of delayed skin wound healing (60 sec ethanol exposure model) and coagulated, and evaluation was performed in the healing process for 7 days. Further, a group in which only an atelocollagen solution (a 3 mg/mL hydrochloric acid solution) was applied to the affected area and coagulated was used as a control. […] When the shrinkage of the wound area after 7 days was examined, the relative area of the wound area in the GM-CSF administration group was larger by about 15% than that of the control group, and the shrinking action of natural healing of a wound area was inhibited, and the wound area was exacerbated.

B1: GM-CSF: granulocyte macrophage colony stimulating factor, mouse-derived recombinant (R&D System), dissolved in atelocollagen solution (protein, UniProt P01587 18-141, looked up)
Granulocyte-macrophage …: APTRSPITVTRPWKHVEAIKEALNLLDDMPVTLNEEVEVVSNEFSFKKLTCVQTRLKIFEQGLRGNFTKLKGALNMTASYYQTYCPPTPETDCETQVTTYADFIDSLKTFLTDIPFECKKPGQK
20 μg/100 μL in atelocollagen solution, 7-day period
  histology / symptoms of the wound area (edema, swelling): edema was noted
20 μg/100 μL in atelocollagen solution, 7 days
  thickness of granulation tissue compared with control group: slightly thicker
20 μg/100 μL in atelocollagen solution, after 7 days, control atelocollagen only
  relative area of the wound area, larger than that of the control group: about 15%
External application
  wound healing effect on intractable skin ulcer (overall finding): does not have an effect on intractable skin ulcers; also recorded: does not have a wound healing accelerating effect
